Tests used:
aorsin = target: T1, aorsin (Aspergillus oryzae, UniProt Q8NK92); assay: PE001 protease stability, SDS-PAGE after protease treatment; format: biochemical
T1 sequence (Q8NK92 216-652): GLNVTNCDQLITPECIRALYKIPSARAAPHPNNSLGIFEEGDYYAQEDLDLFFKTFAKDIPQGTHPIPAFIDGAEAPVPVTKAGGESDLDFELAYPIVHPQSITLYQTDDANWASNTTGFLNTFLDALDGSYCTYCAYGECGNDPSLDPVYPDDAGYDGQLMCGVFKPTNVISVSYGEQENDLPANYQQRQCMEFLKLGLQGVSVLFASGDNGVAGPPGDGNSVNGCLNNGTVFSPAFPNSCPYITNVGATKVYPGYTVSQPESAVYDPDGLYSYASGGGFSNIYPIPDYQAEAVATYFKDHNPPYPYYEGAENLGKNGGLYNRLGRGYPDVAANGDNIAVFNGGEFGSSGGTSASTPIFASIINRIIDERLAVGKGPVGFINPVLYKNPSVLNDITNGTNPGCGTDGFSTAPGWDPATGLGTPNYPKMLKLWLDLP
Experimental: (§1) 40 μl enzyme solutions (1 mg/ml) in 50 mM sodium acetate buffer, pH 4.5, were mixed with 1/10 volume of 1 mg/ml protease solutions such as aspergillopepsin I described in Biochem J. 1975 April; 147(1):45-53, or the commercially available product from Sigma and aorsin described in Biochemical journal [0264-6021] Ichishima yr: 2003 vol:371 iss:Pt 2 pg:541 and incubated at 4 or 32° C. overnight. As a control experiment, H2O was added to the sample instead of proteases. The samples were loaded on SDS-PAGE to see if the glucoamylases are cleaved by proteases.

aspergillopepsin I = assay: as above; format: biochemical; conditions: for intact glucoamylase (ca. 70 kDa): aspergillopepsin I
Experimental: as §1

host proteases = assay: Cleavage during cultivation, SDS-PAGE of culture supernatants; parameters: species or system Aspergillus niger
Experimental: Aspergillus transformant of the variant and the wild type Penicillium oxalicum glucoamylase were cultivated in 6-well MT plates containing 4× diluted YP-2% maltose medium supplemented with 10 mM sodium acetate buffer, pH4.5, at 32° C. for 1 week.
The culture supernatants were loaded on SDS-PAGE.

[1] = Glucoamylase activity (AGU) of variant compared to parent; format: biochemical; conditions: 37° C., pH 4.3, maltose 100 mM
Experimental: The Novo Glucoamylase Unit (AGU) is defined as the amount of enzyme, which hydrolyzes 1 micromole maltose per minute under the standard conditions 37° C., pH 4.3, substrate: maltose 23.2 mM, buffer: acetate 0.1 M, reaction time 5 minutes.
An autoanalyzer system may be used. Mutarotase is added to the glucose dehydrogenase reagent so that any alpha-D-glucose present is turned into beta-D-glucose. Glucose dehydrogenase reacts specifically with beta-D-glucose in the reaction mentioned above, forming NADH which is determined using a photometer at 340 nm as a measure of the original glucose concentration.
The glucoamylase activity measures as AGU as described above was checked for the purified enzymes of the wild type Penicillium oxalicum and the variant glucoamylase.
The Glucoamylase Unit (AGU) was defined as the amount of enzyme, which hydrolyzes 1 micromole maltose per minute under the standard conditions (37° C., pH 4.3, substrate: maltose 100 mM, buffer: acetate 0.1 M, reaction time 6 minutes).

[2] = Protein thermal unfolding analysis (TSA, Thermal shift assay); format: physicochemical
Experimental: Protein thermal unfolding of the T65A and Q327F variants, was monitored using Sypro Orange (In-vitrogen, S-6650) and was performed using a real-time PCR instrument (Applied Biosystems; Step-One-Plus).
In a 96-well plate, 25 microliter micropurified sample in 50 mM Acetate pH4,5 at approx. 100 microgram/ml was mixed (5:1) with Sypro Orange (resulting conc.=5×; stock solution from supplier=5000×). The plate was sealed with an optical PCR seal. The PCR instrument was set at a scan-rate of 76° C. pr. hr, starting at 25° C. and finishing at 96° C.
Protein thermal unfolding of the E501V+Y504T variant, was monitored using Sypro Orange (In-vitrogen, S-6650) and was performed using a real-time PCR instrument (Applied Biosystems; Step-One-Plus).
In a 96-well plate, 15 microliter purified sample in 50 mM Acetate pH4,5 at approx. 50 microgram/ml was mixed (1:1) with Sypro Orange (resulting conc.=5×; stock solution from supplier=5000×) with or without 200 ppm Acarbose (Sigma A8980). The plate was sealed with an optical PCR seal. The PCR instrument was set at a scan-rate of 76 degrees C. pr. hr, starting at 25° C. and finishing at 96° C.
Fluorescence was monitored every 20 seconds using in-built LED blue light for excitation and ROX-filter (610 nm, emission).
Tm-values were calculated as the maximum value of the first derivative (dF/dK) (ref.: Gregory et al; J Biomol Screen 2009 14: 700.)

[3] = Thermostability analysis by Differential Scanning Calorimetry (DSC); format: physicochemical
Experimental: . The thermal denaturation temperature, Td (° C.), was taken as the top of the denaturation peak (major endothermic peak) in thermograms (Cp vs. T) obtained after heating enzyme solutions in selected buffers (50 mM Sodium Acetate, pH 4.0 or 4.8) at a constant programmed heating rate of 200K/hr.
Sample- and reference-solutions (approximately 0.3 ml) were loaded into the calorimeter (reference: buffer without enzyme) from storage conditions at 10° C. and thermally pre-equilibrated for 10 minutes at 20° C. prior to DSC scan from 20° C. to 110° C. Denaturation temperatures were determined with an accuracy of approximately +/−1° C.

protease = conditions: cited from earlier work

B1: PE001: Penicillium oxalicum glucoamylase SEQ ID NO: 14 with K79V substitution (protein, listed as Penicillium oxalicum)
chain: RPDPKGGNLTPFIHKEGERSLQGILDNLGGRGKKTPGTAAGLFIASPNTENPNYYYTWTRDSALTAKCLIDLFEDSRAVFPIDRKYLETGIRDYKSSQAILQSVSNPSGTLKDGSGLGEPKFEIDLNPFSGAWGRPQRDGPALRATAMITYANYLISHGQKSDVSQVMWPIIANDLAYVGQYWNNTGFDLWEEVDGSSFFTIAVQHRALVEGSQLAKKLGKSCDACDSQPPQILCFLQSFWNGKYITSNINTQASRSGIDLDSVLGSIHTFDPEAACDDATFQPCSARALANHKVYVDSFRSIYKINAGLAEGSAANVGRYPEDVYQGGNPWYLATLGASELLYDALYQWDRLGKLEVSETSLSFFKDFDATVKIGSYSRNSKTYKKLTQSIKSYADGFIQLVQQYTPSNGSLAEQYDRNTAAPLSANDLTWSFASFLTATQRRDAVVPPSWGAKSANKVPTTCSASPVVGTYKAPTATFSSKTKCVPAKDIVPITFYLIENTYYGENVFMSGNITALGNWDAKKGFPLTANLYTQDQNLWFASVEFIPAGTPFEYKYYKVEPNGDITWEKGPNRVFVAPTGCPVQPHSNDVWQF
modifications: mat_peptide (1)..(595) mature Penicillium oxalicum glucoamylase sequence
- intact glucoamylase (ca. 70 kDa) (aorsin; incubation 4° C. overnight): 100%
- intact glucoamylase (ca. 70 kDa) (aorsin; incubation 32° C. overnight): 100%
- intact glucoamylase (ca. 70 kDa) (aspergillopepsin I; incubation 4° C. overnight): 100%
- intact glucoamylase (ca. 70 kDa) (aspergillopepsin I; incubation 32° C. overnight): 100%
- SDS-PAGE result after protease treatment (aspergillopepsin I; proteases (aspergillopepsin I, aorsin)): only showed one band corresponding to the intact molecule
- cleavage by host proteases during fermentation (host proteases): yielded only intact molecule
- intact glucoamylase (ca. 70 kDa) (host proteases; culture supernatant, 32° C., 1 week): 100%
- Relative specific activity AGU/mg [1]: 102%
- Tm (Deg. Celsius) +/−0.4 ([2]; Table 14a, 50 mM Acetate pH 4,5): 80.3 Deg. Celsius
- Tm (Deg. Celsius) +/−0.4 ([2]; Table 14b, Acarbose: + (200 ppm)): 86.9 Deg. Celsius
- Tm (Deg. Celsius) +/−0.4 ([2]; Table 14b, Acarbose: −): 79.5 Deg. Celsius
- DSC Td (° C.) @ pH 4.0 ([3]; pH 4.0, 50 mM Sodium Acetate): 82.1 °C
- DSC Td (° C.) @ pH 4.8 ([3]; pH 4.8, 50 mM Sodium Acetate): 83.4 °C
- sensitivity to protease degradation relative to the parent (protease): reduced sensitivity to protease degradation relative to the parent
